{"source": "paper PMC9186069", "about": "“Borrelia miyamotoi FbpA and FbpB Are Immunomodulatory Outer Surface Lipoproteins With Distinct Structures and Functions” (Frontiers in Immunology, 2022)", "binders": {"B1": {"name": "FbpA-C (domain or fragment)", "chain": "GSTGSDNRYKSYLEGVRYNVSAAIGSIDKIYNNYKLFEEQRTKMYSTRLDTVTKDQAKKEAEKFTKEELEKDLKELLNYIQVSAKTATNFVYQKEQYAKQRLDKLETEVKTLISEVQGQSHPYEAYKAIVRSKFLQMKDSLEVVKGVIDRDGPWY", "notes": "Made from pT7HMT-FbpA-C; also called FbpA(222-371); C-terminal truncation construct of B. miyamotoi FbpA; source: E. coli BL21 (DE3), purified (Ni column, TEV, gel filtration)"}, "B2": {"name": "FbpB-C (domain or fragment)", "chain": "DNQYKFKLKNITDSVEQALKIAKQIKDDLDIIEFHRIKLSNHYGIRAEEHEKQTAREELSKFSKDKLEADLKKLLSEIEKSLNAATILITYNDYGGNLQSDLSAKTTLEALKTEVSSLITKIQDFNNKDHQAYPTSYYNDYQTYQALRNPYSKLTLVKDLLTRTGIVAR"}}, "conditions_in_all_cases": "both partners purified", "key": {"C1r zymogen": {"target": "T1, C1r zymogen (human, UniProt P00736 18-705)", "T1 construct": "also called zymogen form of full-length purified C1r; zymogen C1r; source: bought: Complement Technology, Inc. (purified)", "T1 sequence": "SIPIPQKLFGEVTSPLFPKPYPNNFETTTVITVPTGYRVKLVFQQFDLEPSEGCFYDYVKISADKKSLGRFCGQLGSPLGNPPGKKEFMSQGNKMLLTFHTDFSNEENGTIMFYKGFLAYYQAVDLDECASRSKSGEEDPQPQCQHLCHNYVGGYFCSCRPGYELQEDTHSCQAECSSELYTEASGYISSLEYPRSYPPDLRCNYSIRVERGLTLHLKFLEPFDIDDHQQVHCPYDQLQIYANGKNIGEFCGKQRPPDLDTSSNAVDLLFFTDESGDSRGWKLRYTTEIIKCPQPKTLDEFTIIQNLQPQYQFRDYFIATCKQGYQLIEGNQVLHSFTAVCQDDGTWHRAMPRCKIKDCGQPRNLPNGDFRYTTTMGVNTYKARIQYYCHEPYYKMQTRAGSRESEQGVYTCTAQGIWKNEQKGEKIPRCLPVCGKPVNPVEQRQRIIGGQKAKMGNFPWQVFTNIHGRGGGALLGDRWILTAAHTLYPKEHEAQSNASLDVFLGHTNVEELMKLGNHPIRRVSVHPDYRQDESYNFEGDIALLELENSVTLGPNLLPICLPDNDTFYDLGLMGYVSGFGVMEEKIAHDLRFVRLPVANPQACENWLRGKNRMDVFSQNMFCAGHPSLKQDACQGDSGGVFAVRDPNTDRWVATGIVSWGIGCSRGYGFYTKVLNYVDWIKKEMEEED", "experiment": "SPR; FbpA-C or FbpB-C immobilised by amine coupling; full-length C1r zymogen or active C1r injected, fivefold dilution series 0-100 nM, single cycle, final dissociation 1 hour; Biacore T200, 25°C; kinetic fits"}, "active C1r": {"target": "active C1r (human, UniProt P00736, activated two-chain form, cleaved between 463 and 464 (cleavage limits from UniProt chain features), heavy and light chains disulfide-linked; plasma-purified glycoprotein; native C1r forms a Ca-depend)", "experiment": "SPR; FbpA-C or FbpB-C immobilised by amine coupling; full-length C1r zymogen or active C1r injected, fivefold dilution series 0-100 nM, single cycle, final dissociation 1 hour; Biacore T200, 25°C; kinetic fits"}, "C1r-CCP2-SP": {"target": "T2, C1r-CCP2-SP (human)", "T2 construct": "source: recombinant (pT7HMT-C1r-CCP2-SP), purified by previously published protocols with a final gel filtration step", "T2 sequence (A0A0U2RP97 entry or part of it)": "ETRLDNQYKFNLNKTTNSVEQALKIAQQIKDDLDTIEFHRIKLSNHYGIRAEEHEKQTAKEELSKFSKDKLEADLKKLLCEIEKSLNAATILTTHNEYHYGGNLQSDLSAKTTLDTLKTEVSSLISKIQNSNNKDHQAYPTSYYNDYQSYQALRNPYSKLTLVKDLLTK", "experiment": "SPR; FbpA-C, FbpB-C or FbpA DA-C immobilised by amine coupling; C1r-CCP2-SP injected, twofold dilution series 0-100 nM, multi-cycle; Biacore T200, 25°C, 30 μL/min; kinetic fits"}}, "data": [{"binder": "B1", "values": [{"measurement": "Kd", "setting": "C1r zymogen", "value": 850, "unit": "pM"}, {"measurement": "koff", "setting": "C1r zymogen", "value": "1.9e-05", "unit": "s⁻¹"}, {"measurement": "kon", "setting": "C1r zymogen", "value": 22000, "unit": "M⁻¹ s⁻¹"}, {"measurement": "Kd", "setting": "active C1r", "value": 390, "unit": "pM"}, {"measurement": "koff", "setting": "active C1r", "value": "2.7e-05", "unit": "s⁻¹"}, {"measurement": "kon", "setting": "active C1r", "value": 68000, "unit": "M⁻¹ s⁻¹"}]}, {"binder": "B2", "values": [{"measurement": "Kd", "setting": "C1r-CCP2-SP", "value": 1400, "unit": "pM"}, {"measurement": "koff", "setting": "C1r-CCP2-SP", "value": 0.00055, "unit": "s⁻¹"}, {"measurement": "kon", "setting": "C1r-CCP2-SP", "value": 390000, "unit": "M⁻¹ s⁻¹"}, {"measurement": "Kd", "setting": "active C1r", "value": 1100, "unit": "pM"}, {"measurement": "koff", "setting": "active C1r", "value": "7.6e-05", "unit": "s⁻¹"}, {"measurement": "kon", "setting": "active C1r", "value": 68000, "unit": "M⁻¹ s⁻¹"}]}]}
